Data reported in publication doi:10.1101/2021.02.17.431492 (bioRxiv, 2021).

Assays:
[1] = target: SARS-CoV-2 RBD sortase A conjugated nanoparticle (RBD-scNP) (SARS-CoV-2, Wuhan strain (RBD moiety), UniProt P0DTC2); assay: BLI
[2] = target: monomeric SARS-CoV-2 receptor binding domain (RBD) (SARS-CoV-2, UniProt P0DTC2); assay: SPR

Binder | binding result [1] | Kd [2] [pM]
DH1041 (ACE2 binding site-targeting RBD neutralizing antibody) (antibody, V domains shown) VH: EVQLVESGGGLVQPGGSLRLSCAASGVTFSSYWMSWVRQAPGKGLEWVANIRQDGSEKYSVDSVKGRFTISRDNAKNSLYLQMNSLRAEDTAVYYCARARRADNSGYYGFHFDCWGQGTLVTVSS VL: QSVLTQPPSVSGAPGQRVTISCTGSSSNIGAGYDVHWYQQLPGTAPKLLIYGNNNRPSGVPDRFSDSKSGTSASLAITRLQAEDEADYYCQSYDSSLSGWVFGGGTKLTVL | binds | 
DH1047 antigen binding fragment (Fab) (Fab, V domains shown) VH: QVQLVQSGAEVKKPGASVQVSCQASANTFTNHYIHWVRQAPGQGLEWMGIIYPTGGNTIYAQGFQGRVTMTRDTSLNTIYLELSSLRSEDTAVYYCARDVRVDDSWSGYDLLSGGTYFDYWGQGTLVTVSS VL: not shown |  | < 20
